Laboratory results from patent publication US9644025.

Biological target: Human FcγRII, His-tagged domain (R&D Systems, Cat # 1330-CD) (human) (UniProt P12318)
Test: SPR (Biacore 3000), His-tagged receptor captured by penta-His antibody on CM5 chip, antibody injected; steady-state RU relative to control

Relative Binding Capability (%): 100%
Substance: Bapineuzumab (antibody)
